Assay results reported in the nanobody polyreactivity screen of Harvey et al. (2022).

Assay: yeast display, Sf9 membrane polyspecificity reagent, FACS + sequencing; frameworks hold sequencing errors
In short: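 Synthetic nanobody libraries on Saccharomyces cerevisiae BJ5465 were galactose-induced for 36–48 hours, stained 1 hour at 4 °C with 10% biotinylated, detergent-solubilized Sf9 membrane reagent and enriched on streptavidin microbeads. FACS then separated cells into low and high (top ~1%) gates by anti-HA (expression) and streptavidin (reagent binding) fluorescence. Genes were colony-PCR amplified, MiSeq 2 × 250 sequenced and CDR-length filtered. A clone's polyreactivity label is that of its gate of origin.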

Row | Sequence | polyreactivity (PSR sort gate)
1 | QVQLVESGGGLVQAGGSLRLSCAASGRTFSRNAMGWYRQAPGKERELVATISRGGGITFYADSVKGRFTISRDNAKNTVYLQMNSLKPEDTAVYYCNADVRYVGLRRIVDYWGQGTQVTVSS | high polyreactivity
2 | QVQLVESGGGLVQAGGSLRLSCAASGRTFGYNAMGWYRQAPGKERELVAAITSGGGTKYADSVKGRFTISRDNAKNTVYLQMNSLKPEDTAVYYCAATYLYEWSRFVYDGLYYWGQGTQVTVSS | low polyreactivity
3 | QVQLVESGGGLVQAGGSLRLSCAGSGRTLVLYDRGWSRQAHGKARELVAAITWSGDSTYYADSVKGRFTISRDNAKNTVYLQMNSLKPEDTQVYYCSATYLNAKRGLRDDYWGQGTQVTVSS | low polyreactivity
4 | QVKLVESGGGLVQAGGSLRLSCAASGGIFSPNAMGWYRHAPGKERELVAAISSNGGSTNYADSVKGRFTISRDNAKNTVYLQMNSLKPEDNAVYYCAKVYRSIGPNVSRYGLSYYYWGQGTQVTVSS | low polyreactivity
5 | QVQLQDSGGGLVQAGGSLRLSCAASGYIFGSGSMGWFRQAPGKERELVATINNGSSTYYADSVKGRFTISRDNAKNTVYLQMNSLKPEDTAVYYCNRVGTYHSYDYWGQGTQVTVSS | high polyreactivity
6 | QVQLVESGGGLVQAGGSLRLSCAASGSILYRYTMGWYIQAPGKERELVAAITKRGGRTYYADSVKGRFTISRDTAKNTVYLQMNSLKREDTAVYYCAAKYYTGGSFEMYYWGQGTQVTVSS | high polyreactivity
7 | QVQLVESGGGLVQAGGSLRLSCAASGSIFGSYAMGWYRQAPGKERELVAAISRRGGSTYYADSVKGRFTISRDNAKNTVYLQMNSLKPEDTAVYYCAARWPTGRNGYWGQGTQVTVSS | high polyreactivity
8 | QVQLVESGGGLVQAGGSLRLSCAASGSILSHYAMGWYRQAPGKERELVAAITTRGGSTYYADSVKGRFTISRDNAKNTVFLQMNSLKPEDTAVYYCAARGGVDSAYYGYWGQGTQVTVSS | high polyreactivity
9 | QVQLVESGGGLVQAGGSLRLSCAASGRIFTPYVMGWYRQAPGKERELVADINLSGDSTSYADSVKGRFTISRDNAKNTVYLQMNSLKPEDTAVYYCNADSYIYVGNDQYDYWGQGTQVTVSS | low polyreactivity
10 | QVQLVESGGGLVQAGGSLRLICAASGSIFWAYAMGWYRQAPGKERELVAAISSSGGRTYYADSVKGRFTISRDNAKNTVYFQMNSLNPEDTAVYYCAARSYSGYSPTFDYWGQGTQVTVSS | high polyreactivity
11 | QVQLVESGGGLVQAGGSLRLSCAASGRNFQWYSMGWSRQAPGKEREFVAAIRYSGGSTYYADSVKGRFTISRDNAKNTVYLQMNSMKPEDTSVYYCNARTGFLARNKRFGYWGQGTQVSVSS | high polyreactivity
12 | QVPLVESGGGLVLAGGSLRLSCAASGSTVDDNAMGWYRQAPGKVRELVAGISTNGGSTSYADSVKGRITISRDNAKNTVYLQMNSRKPEHTAVYYSAKGLYVQFDYWGQGTQVTVSS | low polyreactivity
13 | QVQLQESGGVQAGGSLRLSSAATGYIARSDDMGWYRQAPGKERELVATINNGTITYYADSVKGRFTISRDNAKNTVYLQMNSLKPEDTAVHYCAVVQSDTDSLYYWGQGTQVSVSS | low polyreactivity
14 | QVQLVESGGGLVQAGGSLRLSCAASGIIFKYYSKGWYRQAPGKERELVAAITSGGSTNYADSVKGRFTISRDNAKNTVYLQMNSLKPEDTAVYYCAKRFYYRNRFDYWGQGTQETVSS | low polyreactivity
15 | QVQLVESGGGLVQAGGSLRLSCAASGFIFRVYAMGWYRQAPGKERELVAAISDSGGSTTYADSVKGRFTISRDNAKNTVYLQMNSLKPEDTAVYYCAADYDFFSLYLYDYWGQGTQVTVSS | low polyreactivity
16 | QVQLVESGGGLVQAGGSLRLSCAASGRIIPGNAMGWYRQAPGKERELVAAISWGGGSTYYADSVKGRFTISRDNAKNTVYLQMNSLKPEDTAVYYCNAGVSIGRSRRYDYWGQGTQVTVSS | low polyreactivity
17 | QVQLVESGGGLLQAGGSLRLSCAASGSTFTAYAMGWYRQAPGKERELVADISDSGGSTYYADSEKGRFTISRDNAKNTVYLQINSLKPEDTAVYYCAVHVRAFVVSKFDSRGQGTQVTVSS | low polyreactivity
